{"source": "patent US20220315967A1", "about": "“METHODS FOR PRODUCING D-TRYPTOPHAN AND SUBSTITUTED D-TRYPTOPHANS” (priority 2019, published 2022)", "proteins": {"B1": {"name": "standalone IvoA-C (condensation (C) domain of Aspergillus nidulans single-module NRPS IvoA) (protein)", "chain": "DLDLSAKLSSPLVCPADVVRSLEVNGVCIERDVEIVYTPSSIQQHMLWRQSQEPWFYRVQGDWTIEKTTTQSEPVDIDRLSHAWNQVVHRHTTLRTVFRYSSEEERFVAIVLHEVKPAISIIRKGIQTSGSLCRDDDLSPPHRMVLREKDNGSVVCELEFSHTIIDAASRSIVVQDLLDAYDGKLAHRPLDFPPFWEYIRLAQSSTPSARKEELHRAGRVVTLPFQPTHVLSKVPEACKKNEITISSFFMTAWSIVLAKHFVAHNQRVDSTSSQAVAFDYVLSDRSANIPGIESAVGPYIRLPTLETHVKEGVSLKNIARGLHAQCTFQSLSQSTQDGSSLELPSKATALQKYSTLVNIRNSGSDSLDLVSDSGEWKWILQGFSDPWDYDLVFAVNVHAGKVTGWTVEYADGVVEHSAADEIAKDLNDVVERMVCEII"}}, "key": {"[1]": {"molecular_target": "T1, D-tryptophanyl-S-IvoA-ΔC(E^0)", "T1 chain": "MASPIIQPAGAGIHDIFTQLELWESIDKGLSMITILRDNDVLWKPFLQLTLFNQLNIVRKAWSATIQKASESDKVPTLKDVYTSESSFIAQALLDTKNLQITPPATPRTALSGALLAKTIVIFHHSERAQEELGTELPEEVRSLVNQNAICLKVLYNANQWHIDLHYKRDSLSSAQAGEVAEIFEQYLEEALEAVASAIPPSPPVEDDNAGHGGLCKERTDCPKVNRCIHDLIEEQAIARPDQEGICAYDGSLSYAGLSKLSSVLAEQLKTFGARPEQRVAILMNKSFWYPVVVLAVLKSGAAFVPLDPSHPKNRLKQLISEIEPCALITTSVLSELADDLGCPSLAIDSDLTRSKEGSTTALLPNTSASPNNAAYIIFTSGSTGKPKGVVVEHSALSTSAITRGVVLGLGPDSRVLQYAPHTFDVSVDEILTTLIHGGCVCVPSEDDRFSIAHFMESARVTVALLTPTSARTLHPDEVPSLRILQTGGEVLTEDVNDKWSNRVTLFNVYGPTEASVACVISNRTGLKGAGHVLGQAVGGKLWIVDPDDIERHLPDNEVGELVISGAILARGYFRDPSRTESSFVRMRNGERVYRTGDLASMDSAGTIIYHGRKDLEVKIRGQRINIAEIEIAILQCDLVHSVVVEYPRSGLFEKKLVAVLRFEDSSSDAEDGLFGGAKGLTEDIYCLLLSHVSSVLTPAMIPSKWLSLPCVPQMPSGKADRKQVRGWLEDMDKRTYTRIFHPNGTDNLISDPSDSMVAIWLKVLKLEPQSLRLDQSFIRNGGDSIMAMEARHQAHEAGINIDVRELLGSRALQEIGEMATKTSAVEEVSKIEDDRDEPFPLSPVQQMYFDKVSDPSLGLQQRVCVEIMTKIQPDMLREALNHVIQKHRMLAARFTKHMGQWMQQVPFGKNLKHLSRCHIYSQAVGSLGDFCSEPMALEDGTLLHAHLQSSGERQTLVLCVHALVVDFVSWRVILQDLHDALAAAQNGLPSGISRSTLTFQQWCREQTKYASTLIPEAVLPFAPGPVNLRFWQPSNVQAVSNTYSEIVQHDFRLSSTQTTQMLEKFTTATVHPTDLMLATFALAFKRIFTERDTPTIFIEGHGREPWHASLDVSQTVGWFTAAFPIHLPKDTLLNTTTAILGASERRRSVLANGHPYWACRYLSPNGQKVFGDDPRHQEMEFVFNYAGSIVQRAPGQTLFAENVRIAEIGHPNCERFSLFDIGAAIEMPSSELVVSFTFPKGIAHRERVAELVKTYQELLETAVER"}, "[2]": {"molecular_target": "T2, IvoA-ΔC truncation mutant", "T2 chain": "T1 chain with A963H"}}, "note": "Changes are numbered by the printed parent chain.", "data": [{"protein": "B1", "values": [{"measurement": "IvoA-C catalyzed hydrolysis of the protein-bound thioester; liberated free tryptophan quantified by LC-MS", "setting": "[1]", "result": "IvoA-C stereoselectively hydrolyzed D-tryptophanyl-S-IvoA-ΔC(E^0) over L-tryptophanyl-S-IvoA-ΔC(E^0)"}, {"measurement": "stereoinversion activity (complementation in trans)", "setting": "[2]", "result": "Addition of IvoA-C in equimolar to either IvoA(C^0) mutant or IvoA-ΔC truncation mutant successfully rescued the impaired stereoinversion activity"}]}]}
